In publication PMC11806408:

Molecular target: N‐10/C‐9 fusion PD (human)
Assay: SPR; PDs of BMP‐9, BMP‐10 and N‐10/C‐9 fusion PD immobilised at 450 RUs on a CM5 chip by amine coupling; BMP‐10 GF 0 to 80 nM, 1:2 serial dilutions, 1× HBS‐EP; 1:1 model with mass transfer; apparent KD = kd/ka

Kd: 13.2 nM
koff: 0.0032 s⁻¹
kon: 220000 M⁻¹ s⁻¹
B1: BMP‐10 GF (R&D Systems #2926‐BP‐025/CF) (ligand)
chain: NAKGNYCKRTPLYIDFKEIGWDSWIIAPPGYEAYECRGVCNYPLAEHLTPTKHAIIQALVHLKNSQKASKACCVPTKLEPISILYLDKGVVTYKFKYEGMAVSECGCR
